Assay: yeast display, Sf9 membrane polyspecificity reagent, FACS + sequencing; frameworks hold sequencing errors
How it was run: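 Sorting gates, low and high (top ~1%), were placed on anti-HA fluorescence to track expression and on streptavidin fluorescence to track reagent binding. A clone's polyreactivity label is taken from the gate it came out of. The reagent was 10% biotinylated, detergent-solubilized Sf9 membrane, applied for 1 hour at 4 °C to galactose-induced yeast display cells.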

| Sequence | polyreactivity (PSR sort gate) |
| --- | --- |
| QVQLVESGGGLVQAGGSLRLSCAASGSTFDPYAMGWYRQAPGKERELVAAITGGGSTNYADSVKGRFTISRDNAKNTVYLQMNSLKPEDTAVYYCAATIPKPYHSGLRLLGQGTQVTVSS | low polyreactivity |
| QVQLVESAGGLVQAGGSLRLSCAASGSTLSWNTMGWYRQAPGKERELVARINWGGSSTYYADSVKGRFTISRDNAKNTVYLQMNSLKPEDTAVFYCNARYLSSAYDYWGQGTQVTVSS | high polyreactivity |
| QVQLVESGGGLVQAGGSLRLSCAASGSIFESYAMGWYRQAPGKEWELVASISGGGSTYYADSVKGRFTISRDNAKNTVYLQMNSLKPEDTAVYYCATVYVRYRQSRLIRYGYWVQGTQVTVSS | high polyreactivity |
| QVQLVESGGGLVQAGGSLRLSCAASGSIFSRNAMGWYRQAPGKEREFVARISWSSTSTNYADSVKGRFTISRDNAKNTVYLQMISLKPEVTAVDYCSADFRGDRRFDYWGQGTQVTVSS | low polyreactivity |
| QVQLVESGGGLVQAGGSLRLSCAASGLIFSWNAMGWYRQAPGKERELVASISYSGGRTYYADSVKGRFTISRDNAKNTVYLQMNSLKPEDTAVYYCAADTNATTDPEMDYWGQGTQVTVSS | low polyreactivity |
| QVQLVESGGGLVQAGGSLRLSCAASGRIFRYKAMGGYRQAPGKEREFVAAISSSGGSTFYADSVKGRFTISRDNAKNTVYLQMNSLIPEDTAAYYCAADDAGFWYYYYGRYVTFDYWGQGTQVTVSS | low polyreactivity |
| QVQLVESGGGLVQAGGSLRLSCAASGSTFFQYAMGWYRQAPGKERELVAAITSGGSTNYADSVKGRFTISRDNAKNTVYLQMNSLKPEDTAVYYCAAESKSGAFDYWGQGTQVTVSS | low polyreactivity |
| QVQLVESGGGLDQAGGSLRLSCAASGFIFIQNDMGWYRQAPGKEREFVASISKDGGRTYYADSVKGRFTISRDNAKNTVYLQMNSLKPEDTAVVYCNTYPRGNWGNFVEQDYDYWGHGTQVTVSS | low polyreactivity |
| QVQLEESGGGLVQAGGSHRLSCAASGITFSLYAMGWYRQAPGKERELVATIDSGGSTNYADSVKGRFTISRDNAKNTVYLQMNSLIPEDTAVYYCAADGVWYYYDMDYWGQGTQVTVSS | low polyreactivity |
| QVQLVESGGGLVQAGGSLRISCAASGRTFYYYVMGWYRQAPGKERELVAAISRGGRTYYADSVKGRFTISRDYAKNTVYLQMNSLKPEDTAVYSCNAVPRKSRHRYDYWGQGTQVTVSS | high polyreactivity |
| QVQLVESGGGLVQAGGSLRLSCAASGGTFVSYVMGWYRQAPGKEREWVAAISVSGGRTYYADSVKGRFTISRDNAKNTVYLQMNSLKPEDTAVYYCAADSVVVGSPGNDYWGQGTQVTVSS | high polyreactivity |
| QVQLVESGGGLVQAGGSLRLSCAASGLSFRRYAMGWYRQAPGKEREFVATISRRGGSTRYADSVKGRFTISRDNAKNTVYLQMKSLKPEDTAVYYCNKVEYASIAKGYDYWGQGTQVTVSS | high polyreactivity |
| QVQLVESGGGLVQAGGSLRLSCAASGSIFGGYTMGWYRQAPGKERKLVAAISRRGGNTYYADSVKGRFTISRDNAKNTVYLLMNSLKPEDTAVYYCAVRWPSARIPVKLDYWGQGTQVTVSS | high polyreactivity |
| QVQLVESGGGSVQAGGSLRLICAASGSTFSDYDMGWYRQAPGKERELVAAISIGGRTNYADSVKGRFTISRDNAKNTVYLQMNSLKPEDTAVYDCAADSQSIYAYWPGGGYGYWGQGTQVTLSS | low polyreactivity |
| QVQLVESGGGLVQAGGSLRLSCAASGITFRAYVMGWYRQEPGKERELVAAINRRGGSTYYADSVKGRFTISRDNAKNTVYLQMNSLKPEDTAVYYCAAGLYSTGYTYDYWGQGTQVTVSS | high polyreactivity |
| QVQLVESGGGLVEAGGSLRLSCAASGRISQSNAMGWYRQAPGKESELVAAISWRGGSTYYADSVKGRFTISRDNAKNTVYLEMNSLKPEDTAVYYCGAKSWYAFYYRHPYDYWGQGTQVTVSS | high polyreactivity |

| Sequence | polyreactivity (PSR sort gate) |
| --- | --- |
| QVQLVESGGGLVQAGGSLRLSCAASGFTFLYYAMGWYRPAPGKERELVAAISASSDRTYYADSVKGRFTISRDNAKNTVYLQMNSLKPEDTAVYYCAAYNSRVGGYRGYGYWGQGTQVTVSS | high polyreactivity |
| QVQVVESGGGLVQAGGSLGLSCAASGFTFGRYARGWYRQAPGKERELVAAISRGGSTYYADSVKGRFTISRDNAMYTDYLQMNSLKTEDTAVYYCNAAGLPTQLYYWGQGTQVTVSS | high polyreactivity |
| QVQLVESGGGLVQAGGSLRLSCAASGFIFRIYAMGWYRQAPGKERELVAAITWDGVSTYYADSVKGRFTISRDNAKNTVYLQMNSLKPEDTAVYYCAARKRSYPYYYWGQGTQVTVSS | high polyreactivity |
| QVQLVESGGGLVQAGGSLRLSCAASGRTSNIYAMGWYRQAPGKERELVAAIRTGGSTNYADSVKGRFTISRDNAKNSVYLQMNSLKPEDTAVYYCAATSRRSRPAEEYWGQGTQVTVSS | high polyreactivity |
| QVQLVESGGGLVQAGGSLRLSCAPSGRIFGGYTMGGYRQAHGKVRELVASINSGGSTAYADSVKGRFTISRDNAKNTVYLQMNSLKPEDTAVYYCNAYLVYSYSPSHYYGFGYWGQGTQVTVSS | high polyreactivity |
| QVQLVESGGGLVQAGGSLRLSCAASGRIFGTNAMGWYRQAPGTEMELDADITSGGSTNYADSVKGRFTISRDNAKNTVYLQMNSLKPEDTAVYYCAADVIGDLRWYREEYWGQGTQVTVSS | low polyreactivity |
| QVQLVESGGGLVQAGGSLRLSCAEYAMGCYRQAPGKERELVATITARGGSTYADSVKGRFTISRDNAKNTVYLQMNSLKPEDTAVYYCNADYGLFYRATFYGYDYWGQCTQVTVSS | low polyreactivity |
| QVQLVESGGGLVQAGGSLRLSCAASGYTFGEYAMGWYRQAPGKERELVATISLSDGSTNYADSVKGRFTISRDNAKNTVYLQMNSLKPEDTAVYYCATTVWYKKAPYPDGDYWGQGTQVTVSS | low polyreactivity |
| QVQLVESGGGLVQAGGSLRLSCAASGSIYGYTMGWNRQAPWKERELVAAINRRADRTYYADSVKGRFTISRDNAKNTVYLQMNSLKPEDTAVYYCNKGGWYTLGYWGQGTQVTVSS | high polyreactivity |
| QVQLVESGGGLVQAGGSLRLSCAASGFIFNFYAMGWYRQAPGKERELVAAISRSGGRTYYADSVKGRFTISRDNAKNTVYLQMNSLKPEDTAVYYCAAVTKSLYGYDYWGQGTQVTVSS | low polyreactivity |
| QVQLVESGGGLVQAGGSLRLSCAASGFIFNHNAMGWYRQAPGKERELVAAISSGGRTYYADSVKGRFTISRDNAKNTVYLQMNSLKPEDTAVYYCAKDTKYSSQYGKYGYWGQGTQVTVSS | low polyreactivity |
| QVQLEESGGGLVQAGGSLRLSCAASGSILPDYVMGWYRQAPGKERELVAAISWSDGSTYYADSVKGRFTISRDNAKNTVYLQRNSLKPEDTAVYYCAAEVWDYYYGCYADDYWGQGTQVTVSS | low polyreactivity |
| QVQLVESGGGLFQAGGSLRLSCAASGSSFPFYAMGWYRQAPGKERELVASISSGGSTNYADSVKGRFTISRDNAKNTVYLQMNSLKPEDTAVYYCNADVPYRWDTWFQVVYPESYDYWGQGTQVTVSS | low polyreactivity |
| QVQLVESGGGLVQAGGSLRLSCAASGIIIDSNAMGWYRQAPGKERELVAAITSGGSTKYADSVKGRFTISRDNAKNTVYLQMNSLKPEDTAVYYCNADFRPADQWSYFYEMDSWGQGTQVTVSS | low polyreactivity |
| QVQLVESGGGLVQAGGSLRLSCAASGSTFSTNVMGWYRQAPGKERELVAAISTIGGSTYADSVKGRFTISRDNAKNTVYLQMNSLKPEDTAVYYCAAVFRVRRKTYGYWGQGTQVTVSS | high polyreactivity |

— the nanobody polyreactivity screen of Harvey et al. (2022)
